For one substance, intracellular IFNγ staining, percent of T cells results are on record in patent US20240156928A1.

This test concerns the target CD19 (UniProt P15391). The experiment in a line: cell-based or functional assay.

“CD19R:CD28:z(CO) CAR with L235E and N297Q in the IgG4 spacer (CD19R(EQ))” yielded an intracellular IFNγ staining, percent of T cells of 30%.
